This series concerns the target T1, RIG-IΔN (2CARD deletion);RIPLET (Homo sapiens;Homo sapiens, UniProt O95786;Q8IUD6 201-925;1-432, |).
T1 sequence 1: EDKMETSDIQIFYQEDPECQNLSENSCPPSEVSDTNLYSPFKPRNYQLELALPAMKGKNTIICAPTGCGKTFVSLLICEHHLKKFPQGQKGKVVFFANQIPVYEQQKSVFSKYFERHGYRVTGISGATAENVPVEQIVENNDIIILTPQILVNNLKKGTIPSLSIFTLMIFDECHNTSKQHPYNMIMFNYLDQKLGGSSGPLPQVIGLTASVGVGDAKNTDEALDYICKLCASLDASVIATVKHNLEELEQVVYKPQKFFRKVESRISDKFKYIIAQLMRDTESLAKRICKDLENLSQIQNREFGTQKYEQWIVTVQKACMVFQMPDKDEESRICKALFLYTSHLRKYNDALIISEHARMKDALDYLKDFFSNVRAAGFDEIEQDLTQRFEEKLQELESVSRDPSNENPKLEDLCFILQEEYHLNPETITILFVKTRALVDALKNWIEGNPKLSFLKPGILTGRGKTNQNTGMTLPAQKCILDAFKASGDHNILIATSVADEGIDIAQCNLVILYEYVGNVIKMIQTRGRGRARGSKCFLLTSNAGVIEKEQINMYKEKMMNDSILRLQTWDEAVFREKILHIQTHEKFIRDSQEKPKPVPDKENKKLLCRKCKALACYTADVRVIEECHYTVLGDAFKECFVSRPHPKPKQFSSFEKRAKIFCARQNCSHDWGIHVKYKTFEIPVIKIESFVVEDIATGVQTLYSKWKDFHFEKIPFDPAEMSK
T1 sequence 2: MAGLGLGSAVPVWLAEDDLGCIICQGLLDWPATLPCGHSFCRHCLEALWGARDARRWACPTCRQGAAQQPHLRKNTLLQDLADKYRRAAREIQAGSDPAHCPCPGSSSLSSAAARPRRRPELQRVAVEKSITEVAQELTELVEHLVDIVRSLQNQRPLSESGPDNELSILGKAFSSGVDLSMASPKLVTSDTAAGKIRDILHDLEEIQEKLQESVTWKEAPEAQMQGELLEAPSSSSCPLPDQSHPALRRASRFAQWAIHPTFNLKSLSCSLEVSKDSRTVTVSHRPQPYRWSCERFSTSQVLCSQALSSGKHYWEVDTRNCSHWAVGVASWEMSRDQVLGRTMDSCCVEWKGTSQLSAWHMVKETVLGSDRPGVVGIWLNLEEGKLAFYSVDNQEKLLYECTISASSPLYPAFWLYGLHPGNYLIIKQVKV
As to the kind of experiment: EMSA.

B1: 21 bp dsRNA (dsRNA)
RNA 1: GAGUCACGACGUUGUAAAAAA
RNA 2: UUUUUUACAACGUCGUGACUC
modifications: 5'ppp
Consider B1, for which the binding result is “binds”.
